Experimental data published in IntAct's records for PubMed 23664119.

B1: Protein bicaudal D homolog 2 (Homo sapiens), Q8TD16 (parent)
chain: MSAPSEEEEYARLVMEAQPEWLRAEVKRLSHELAETTREKIQAAEYGLAVLEEKHQLKLQFEELEVDYEAIRSEMEQLKEAFGQAHTNHKKVAADGESREESLIQESASKEQYYVRKVLELQTELKQLRNVLTNTQSENERLASVAQELKEINQNVEIQRGRLRDDIKEYKFREARLLQDYSELEEENISLQKQVSVLRQNQVEFEGLKHEIKRLEEETEYLNSQLEDAIRLKEISERQLEEALETLKTEREQKNSLRKELSHYMSINDSFYTSHLHVSLDGLKFSDDAAEPNNDAEALVNGFEHGGLAKLPLDNKTSTPKKEGLAPPSPSLVSDLLSELNISEIQKLKQQLMQMEREKAGLLATLQDTQKQLEHTRGSLSEQQEKVTRLTENLSALRRLQASKERQTALDNEKDRDSHEDGDYYEVDINGPEILACKYHVAVAEAGELREQLKALRSTHEAREAQHAEEKGRYEAEGQALTEKVSLLEKASRQDRELLARLEKELKKVSDVAGETQGSLSVAQDELVTFSEELANLYHHVCMCNNETPNRVMLDYYREGQGGAGRTSPGGRTSPEARGRRSPILLPKGLLAPEAGRADGGTGDSSPSPGSSLPSPLSDPRREPMNIYNLIAIIRDQIKHLQAAVDRTTELSRQRIASQELGPAVDKDKEALMEEILKLKSLLSTKREQITTLRTVLKANKQTAEVALANLKSKYENEKAMVTETMMKLRNELKALKEDAATFSSLRAMFATRCDEYITQLDEMQRQLAAAEDEKKTLNSLLRMAIQQKLALTQRLELLELDHEQTRRGRAKAAPKTKPATPSL

Legend:
[1] = variants of: B1; settings: with rab6a_human RAB6A
[2] = variants of: B1; settings: with dc1i1_human DYNC1I1, O14576
[3] = variants of: B1; settings: with rab6a_human RAB6A; remark: listed apart in the source

dc1i1_human DYNC1I1, O14576, sequence (O14576 whole entry): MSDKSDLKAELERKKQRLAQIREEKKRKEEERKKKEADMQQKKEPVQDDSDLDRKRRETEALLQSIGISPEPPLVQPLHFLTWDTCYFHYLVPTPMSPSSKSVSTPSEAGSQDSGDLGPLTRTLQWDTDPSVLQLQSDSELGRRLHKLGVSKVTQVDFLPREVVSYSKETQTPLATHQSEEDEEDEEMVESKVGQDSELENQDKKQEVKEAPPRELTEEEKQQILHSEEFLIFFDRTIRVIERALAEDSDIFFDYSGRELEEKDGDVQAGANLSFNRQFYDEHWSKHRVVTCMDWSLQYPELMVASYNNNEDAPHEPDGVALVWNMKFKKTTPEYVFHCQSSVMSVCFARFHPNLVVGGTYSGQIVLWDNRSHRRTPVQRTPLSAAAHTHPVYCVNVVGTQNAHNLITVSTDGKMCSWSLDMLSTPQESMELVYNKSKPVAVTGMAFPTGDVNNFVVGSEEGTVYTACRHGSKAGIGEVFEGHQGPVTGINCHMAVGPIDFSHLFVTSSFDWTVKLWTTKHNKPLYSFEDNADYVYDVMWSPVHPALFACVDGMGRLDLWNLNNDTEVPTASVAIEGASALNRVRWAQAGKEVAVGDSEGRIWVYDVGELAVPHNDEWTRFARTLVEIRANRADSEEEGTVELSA

Variant | effect of a mutation on the interaction [1] | effect of a mutation on the interaction [2] | effect of a mutation on the interaction [3]
E774G | decreasing interaction strength |  | 
S107L | with no effect | increasing interaction strength | decreasing interaction strength
